# B1: Par4 leucine zipper/death domain (Par4DD, amino acids 250-342) (other)
# chain: GFPRYNRDANVSGTLVSSSTLEKKIEDLEKEVVTERQENLRLVRLMQDKEEMIGKLKEEIDLLNRDLDDIEDENEQLKQENKTLLKVVGQLTR
# notes: Gal4 fusion in two-hybrid; also called myc-Par4DD
# What was measured:
# [1] = target: T1, human THAP3, full length (human, UniProt Q8WTV1 1-239); assay: yeast two-hybrid, Par4DD bait
# T1 construct: Two-hybrid fusion or 35S-labelled in vitro translation product
# T1 sequence: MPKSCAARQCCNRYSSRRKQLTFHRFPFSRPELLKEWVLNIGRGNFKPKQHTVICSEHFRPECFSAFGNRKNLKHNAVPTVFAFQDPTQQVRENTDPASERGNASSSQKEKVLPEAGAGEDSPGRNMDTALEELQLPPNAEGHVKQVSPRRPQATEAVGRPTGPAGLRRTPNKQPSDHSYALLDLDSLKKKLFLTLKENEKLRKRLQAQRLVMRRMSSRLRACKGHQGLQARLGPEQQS
# [2] = target: T2, human THAP1 (THanatos-Associated-Protein-1), full length (human, UniProt Q9NVV9 1-213); assay: yeast two-hybrid, both orientations
# T2 construct: these tags are not written into the chain; also called hTHAP1; THAP1 wild type
# T2 sequence: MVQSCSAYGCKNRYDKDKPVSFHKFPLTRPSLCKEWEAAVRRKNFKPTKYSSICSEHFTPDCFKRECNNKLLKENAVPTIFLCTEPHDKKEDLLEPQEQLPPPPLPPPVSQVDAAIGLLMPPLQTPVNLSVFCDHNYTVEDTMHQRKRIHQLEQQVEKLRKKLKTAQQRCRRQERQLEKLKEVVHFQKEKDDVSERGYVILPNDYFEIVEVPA
# Procedure: To identify potential protein partners of THAP1, screening of the two-hybrid HEVEC cDNA library was performed using as a bait the human THAP1 full length cDNA inserted into the […] two-hybrid system 3 vector pGBKT7 (Clontech). Briefly, the full-length coding region of THAP1 was amplified by PCR from HEVEC cDNA with primers 2HMR10 (5′-[…]-3′) (SEQ ID NO: 187) and 2HMR9 (5′-[…]-3′) (SEQ ID NO: 188), digested with EcoRI and BamHI, and cloned in frame downstream of the Gal4 Binding Domain (Gal4-BD) in pGBKT7 vector to generate pGBKT7-THAP1. pGBKT7-THAP1 was then cotransformed with the pGAD424-HEVEC cDNA library in yeast strain AH109 (Clontech). 1.5×10⁷ yeast transformants were screened and positive protein interactions were selected by His and Ade double auxotrophy according to manufacturer's instructions ([…] two-hybrid system 3, Clontech). The plates were incubated at 30° C. for 5 days. Plasmid DNA was extracted from these positive colonies and used to verify the specificity of the interaction by cotransformation in AH109 with pGBKT7-THAP1 or control baits pGBKT7, pGBKT7-lamin and pGBKT7-hevin. […] Positive interaction between THAP1 and Par4 was confirmed using full length Par4 bait (pGBKT-Par4) and prey (pGADT7-Par4). […]
binder,measurement,setting,value
B1,binding result,[1],binds
same,binding result,[2],binds
